Experimental data: patent publication US20250049939A1 (TUBULIS, published 2025)

T1: recombinant human FLT3 protein (human, UniProt P36888 27-541)
T1 construct: also called recombinant FLT3 protein; human recombinant FLT3 protein (10445-H08H, Sino Biological)
T1 sequence: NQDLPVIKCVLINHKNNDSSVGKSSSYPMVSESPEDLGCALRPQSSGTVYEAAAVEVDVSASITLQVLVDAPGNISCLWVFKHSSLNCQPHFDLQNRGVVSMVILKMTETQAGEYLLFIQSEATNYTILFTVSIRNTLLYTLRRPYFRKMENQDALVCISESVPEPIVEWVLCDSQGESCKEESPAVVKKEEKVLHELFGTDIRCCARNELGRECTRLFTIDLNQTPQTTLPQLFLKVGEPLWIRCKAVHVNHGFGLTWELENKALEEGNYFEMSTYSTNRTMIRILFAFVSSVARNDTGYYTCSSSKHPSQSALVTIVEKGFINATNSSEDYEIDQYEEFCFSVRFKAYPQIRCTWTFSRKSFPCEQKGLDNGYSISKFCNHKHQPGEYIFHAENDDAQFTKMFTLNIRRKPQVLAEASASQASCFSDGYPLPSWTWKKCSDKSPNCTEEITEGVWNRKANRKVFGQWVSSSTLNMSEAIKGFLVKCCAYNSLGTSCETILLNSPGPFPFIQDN

T2: human wildtype FLT3 expressed on Ba/F3 cells (human, UniProt P36888 27-993)
T2 construct: also called hFLT3 wt; Ba/F3-FLT3
T2 sequence: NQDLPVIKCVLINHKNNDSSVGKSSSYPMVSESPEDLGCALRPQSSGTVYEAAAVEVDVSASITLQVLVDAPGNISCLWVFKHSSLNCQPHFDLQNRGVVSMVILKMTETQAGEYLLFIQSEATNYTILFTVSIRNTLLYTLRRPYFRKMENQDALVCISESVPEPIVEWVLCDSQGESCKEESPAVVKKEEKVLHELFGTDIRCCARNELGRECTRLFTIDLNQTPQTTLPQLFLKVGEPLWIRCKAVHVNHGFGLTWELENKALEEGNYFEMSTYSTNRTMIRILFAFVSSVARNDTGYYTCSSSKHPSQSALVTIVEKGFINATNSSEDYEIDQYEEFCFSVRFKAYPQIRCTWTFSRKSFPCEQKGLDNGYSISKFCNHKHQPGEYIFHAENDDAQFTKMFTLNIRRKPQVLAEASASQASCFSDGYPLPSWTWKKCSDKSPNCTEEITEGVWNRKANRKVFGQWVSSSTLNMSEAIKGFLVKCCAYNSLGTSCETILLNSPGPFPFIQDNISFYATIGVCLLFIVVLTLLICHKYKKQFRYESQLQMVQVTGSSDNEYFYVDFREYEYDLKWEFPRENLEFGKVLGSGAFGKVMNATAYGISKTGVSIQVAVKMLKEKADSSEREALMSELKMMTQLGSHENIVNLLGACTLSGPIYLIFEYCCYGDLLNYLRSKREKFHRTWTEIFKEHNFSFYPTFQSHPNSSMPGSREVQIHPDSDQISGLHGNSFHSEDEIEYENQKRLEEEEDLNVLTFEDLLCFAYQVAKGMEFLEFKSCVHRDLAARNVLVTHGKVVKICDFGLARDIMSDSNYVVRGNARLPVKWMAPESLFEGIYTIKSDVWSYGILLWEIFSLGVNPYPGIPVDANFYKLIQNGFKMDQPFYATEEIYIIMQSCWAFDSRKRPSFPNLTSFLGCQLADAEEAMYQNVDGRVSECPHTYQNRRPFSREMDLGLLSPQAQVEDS

B1: #5 (antibody, human IgG1, kappa, V domains shown)
VH: QVMLVESGGGVVQPGRSLRLSCAASGFTFNNYWMTWVRQAPGKGLEWIASITKTGGGTYYPDSVKGRFTISRDNAKSTLYLQMNSLRSEDTATYYCTTLQQLGVMDAWGQGASVTVSS
VL: DIQMTQSPSVLSASVGDRVTITCRASQNINKELNWYQQKLGKAPKLLIYNTNNLQSGVPSRFSGSGSGTDFTLTISSLQPEDFATYYCFQHKSWPLTFGSGTKLEIKR
notes: also called Humanized clone 5 of 20D9 (VH1 + VK2); Clone #5
B2: Humanized clone 2 of 20D9 (VH2 + VK1) (antibody, human IgG1, kappa, V domains shown)
VH: QVMLVESGGGVVQPGRSLRLSCAASGFTFNNYWMTWVRQAPGKGLEWIASITKTGGGTYYPDSVKGRFTISRDNSKSTLYLQMNSLRAEDTATYYCTTLQQLGVMDAWGQGASVTVSS
VL: DIQMTQSPSVLSASVGDRVTINCRASQNINKELNWYQQKLGEAPKLLIYNTNNLQSGVPSRFSGSGSGTDYTLTISSLQPEDVATYFCFQHKSWPLTFGSGTKLEIKR
B3: #9 (antibody, human IgG1, kappa, V domains shown)
VH: QVMLVESGGGVVQPGRSLRLSCAASGFTFNNYWMTWVRQAPGKGLEWIASITKTGGGTYYPDSVKGRFTISRDNAKSTLYLQMNSLRSEDTATYYCTTLQQLGVMDAWGQGASVTVSS
VL: DIQMTQSPSSLSASVGDRVTITCRASQSINKELNWYQQKPGKAPKLLIYNTNNLQSGVPSRFSGSGSGTDFTLTISSLQPEDFATYYCFQHKSWPLTFGQGTKLEIKR
notes: also called Humanized clone 9 of 20D9 (VH1 + VK3); Clone #9
B4: #7 (antibody, human IgG1, kappa, V domains shown)
VH: QVQLVESGGGVVQPGRSLRLSCAASGFTFNNYWMTWVRQAPGKGLEWIASITKTGGGTYYADSVKGRFTISRDNSKNTLYLQMNSLRAEDTAVYYCTTLQQLGVMDAWGQGTLVTVSS
VL: DIQMTQSPSVLSASVGDRVTITCRASQNINKELNWYQQKLGKAPKLLIYNTNNLQSGVPSRFSGSGSGTDFTLTISSLQPEDFATYYCFQHKSWPLTFGSGTKLEIKR
notes: also called Humanized clone 7 of 20D9 (printed as VH3 + VK29); Clone #7
B5: #8 (antibody, human IgG1, kappa, V domains shown)
VH: QVQLVESGGGVVQPGRSLRLSCAASGFTFNNYWMTWIRQAPGKGLEWIASITKTGGGTYYADSVKGRFTISRDNSKNTLYLQMNSLRAEDTAVYYCTTLQQLGVMDAWGQGTLVTVSS
VL: DIQMTQSPSVLSASVGDRVTITCRASQNINKELNWYQQKLGKAPKLLIYNTNNLQSGVPSRFSGSGSGTDFTLTISSLQPEDFATYYCFQHKSWPLTFGSGTKLEIKR
notes: also called Humanized clone 8 of 20D9 (VH4 + VK2); Clone #8
B6: #11 (antibody, human IgG1, kappa, V domains shown)
VH: QVQLVESGGGVVQPGRSLRLSCAASGFTFNNYWMTWVRQAPGKGLEWIASITKTGGGTYYADSVKGRFTISRDNSKNTLYLQMNSLRAEDTAVYYCTTLQQLGVMDAWGQGTLVTVSS
VL: DIQMTQSPSSLSASVGDRVTITCRASQSINKELNWYQQKPGKAPKLLIYNTNNLQSGVPSRFSGSGSGTDFTLTISSLQPEDFATYYCFQHKSWPLTFGQGTKLEIKR
notes: also called Humanized clone 11 of 20D9 (VH3 + VK3); Clone #11
B7: #12 (antibody, human IgG1, kappa, V domains shown)
VH: QVQLVESGGGVVQPGRSLRLSCAASGFTFNNYWMTWIRQAPGKGLEWIASITKTGGGTYYADSVKGRFTISRDNSKNTLYLQMNSLRAEDTAVYYCTTLQQLGVMDAWGQGTLVTVSS
VL: DIQMTQSPSSLSASVGDRVTITCRASQSINKELNWYQQKPGKAPKLLIYNTNNLQSGVPSRFSGSGSGTDFTLTISSLQPEDFATYYCFQHKSWPLTFGQGTKLEIKR
notes: also called Humanized clone 12 of 20D9 (VH4 + VK3); Clone #12
B8: Humanized clone 1 of 20D9 (VH1 + VK1) (antibody, human IgG1, kappa, V domains shown)
VH: QVMLVESGGGVVQPGRSLRLSCAASGFTFNNYWMTWVRQAPGKGLEWIASITKTGGGTYYPDSVKGRFTISRDNAKSTLYLQMNSLRSEDTATYYCTTLQQLGVMDAWGQGASVTVSS
VL: DIQMTQSPSVLSASVGDRVTINCRASQNINKELNWYQQKLGEAPKLLIYNTNNLQSGVPSRFSGSGSGTDYTLTISSLQPEDVATYFCFQHKSWPLTFGSGTKLEIKR
B9: Humanized clone 4 of 20D9 (VH4 + VK1) (antibody, human IgG1, kappa, V domains shown)
VH: QVQLVESGGGVVQPGRSLRLSCAASGFTFNNYWMTWIRQAPGKGLEWIASITKTGGGTYYADSVKGRFTISRDNSKNTLYLQMNSLRAEDTAVYYCTTLQQLGVMDAWGQGTLVTVSS
VL: DIQMTQSPSVLSASVGDRVTINCRASQNINKELNWYQQKLGEAPKLLIYNTNNLQSGVPSRFSGSGSGTDYTLTISSLQPEDVATYFCFQHKSWPLTFGSGTKLEIKR
B10: #6 (antibody, human IgG1, kappa, V domains shown)
VH: QVMLVESGGGVVQPGRSLRLSCAASGFTFNNYWMTWVRQAPGKGLEWIASITKTGGGTYYPDSVKGRFTISRDNSKSTLYLQMNSLRAEDTATYYCTTLQQLGVMDAWGQGASVTVSS
VL: DIQMTQSPSVLSASVGDRVTITCRASQNINKELNWYQQKLGKAPKLLIYNTNNLQSGVPSRFSGSGSGTDFTLTISSLQPEDFATYYCFQHKSWPLTFGSGTKLEIKR
notes: also called Humanized clone 6 of 20D9 (VH2 + VK2); Clone #6
B11: #10 (antibody, human IgG1, kappa, V domains shown)
VH: QVMLVESGGGVVQPGRSLRLSCAASGFTFNNYWMTWVRQAPGKGLEWIASITKTGGGTYYPDSVKGRFTISRDNSKSTLYLQMNSLRAEDTATYYCTTLQQLGVMDAWGQGASVTVSS
VL: DIQMTQSPSSLSASVGDRVTITCRASQSINKELNWYQQKPGKAPKLLIYNTNNLQSGVPSRFSGSGSGTDFTLTISSLQPEDFATYYCFQHKSWPLTFGQGTKLEIKR
notes: also called Humanized clone 10 of 20D9 (VH2 + VK3); Clone #10
B12: 4B12 chimeric anti-FLT3 monoclonal antibody (antibody, V domains shown)
VH: QVQLQQSGPGLVQPSQTLSLTCTVSGFSLTSYNVNWVRQPPGKGLEWIGAMWRGGGTDYNPALKSRLSISRDTSKSQVFLKMNRLQTEDTAIYFCTRGFGDYWGQGVMVTVSS
VL: DIQMTQTPLSLSVAIGQSASISCKSSQSLKYSDGKTYLNWVFQSPGQSPKRLIYQVSKLDSGVPDRFSGTGSETDFTLKISRVEAEDLGVYYCCQGSYSPSTFGAGTKLELKR
notes: also called 4B12 mab
B13: 30B12 chimeric anti-FLT3 monoclonal antibody (antibody, V domains shown)
VH: QVQLKVSGPGLVQPSQTLSLTCAVSGFSLSNYHVSWVRQPPGKGLEWIAAISSGGSTYYNSPLKSRLSISRDTSKSQVFLKMNSLQTEDTAIYFCTGEDGYTFGNVMDAWGQGASVTVSS
VL: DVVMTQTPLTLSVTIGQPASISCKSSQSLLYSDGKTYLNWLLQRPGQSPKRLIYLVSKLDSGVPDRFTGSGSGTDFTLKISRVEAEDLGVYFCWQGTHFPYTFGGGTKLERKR
B14: 29H1 chimeric anti-FLT3 monoclonal antibody (antibody, V domains shown)
VH: EVKLEESGGGLVQPGGSMKFFCVASGFTFSNYWMNWVRQSPEKGLEWVAQIKLKSDNYATRYAESVKGRFTISRDDSKSSVNLQMNNLRAEDTGIYYCTVSLARSDYWGQGTTLTVSS
VL: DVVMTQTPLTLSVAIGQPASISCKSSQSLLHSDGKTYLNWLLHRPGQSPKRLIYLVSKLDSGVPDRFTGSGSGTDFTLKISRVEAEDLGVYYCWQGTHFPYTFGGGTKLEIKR
B15: 27E7 chimeric anti-FLT3 monoclonal antibody (antibody, V domains shown)
VH: EVKLEESGGDLVQPGGSMKLSCVASGFTFRNYWMNWVRQSPEKGLEWVAQIRLKSDNYATHYAESVKGRFTMSRDDSKSSVYLQMNTLRAEDTGIYYCTVSLARSDYWGQGTTLTVSS
VL: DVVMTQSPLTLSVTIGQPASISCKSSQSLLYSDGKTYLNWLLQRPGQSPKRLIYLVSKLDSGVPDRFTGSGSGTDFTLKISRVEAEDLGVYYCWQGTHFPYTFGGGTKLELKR

Columns and labels:
[1] = molecular target: T1, recombinant human FLT3 protein; test: ELISA with recombinant human FLT3 coated to the plate (results of FIG. 13 summarized)
Experimental: (§1) Maxisorp plates were coated with human recombinant FLT3 protein (10445-H08H, Sino Biological). […] For detection, Attophos Fluorescent Substrate System (S1000, Promega) was applied. The fluorescence was read with excitation of 405 nm and emission at 500-550 nm. The calculation of the dissociation constant KD was performed using GraphPad Prism version 9.4.0.
The 12 clones were subsequently analysed in ELISA assays (FIG. 13). Therefore, recombinant human FLT3 was coated on plates and incubated with the antibody candidates. […] Mean±s.d. of n=3 biological replicates.

[2] = molecular target: T2, human wildtype FLT3 expressed on Ba/F3 …; test: flow cytometry, cell surface binding to Ba/F3 cells expressing human FLT3 (results of FIG. 14 summarized)
[3] = molecular target: T1, recombinant human FLT3 protein; test: ELISA on recombinant human FLT3, normalized to BSA control
Experimental: as §1

Binder | Kd [1] | Binding to human FLT3 (MFI ratio to IgG1 control) [2] | Kd [3]
B1 | 0.0293 µg/mL | 42.4 | 
B2 | 0.0114 µg/mL | 96 | 
B3 | 0.0834 µg/mL | 21.3 | 
B4 | 0.0371 µg/mL | 45.7 | 
B5 | 0.0293 µg/mL | 43.7 | 
B6 | 0.112 µg/mL | 20.5 | 
B7 | 0.0553 µg/mL | 24.8 | 
B8 | 0.0114 µg/mL | 96 | 
B9 | 0.011 µg/mL | 98.2 | 
B10 | 0.0335 µg/mL | 41.3 | 
B11 | 0.0778 µg/mL | 20.2 | 
B12 |  |  | 0.0319 µg/mL
B13 |  |  | 3.31 µg/mL
B14 |  |  | 0.0284 µg/mL
B15 |  |  | 0.0115 µg/mL
